The values that follow come from article PMC8695382 (Nature, 2021).

B5: Mcm5 (natural protein, Saccharomyces cerevisiae)
chain: MSFDRPEIYSAPVLQGESPNDDDNTEIIKSFKNFILEFRLDSQFIYRDQLRNNILVKNYSLTVNMEHLIGYNEDIYKKLSDEPSDIIPLFETAITQVAKRISILSRAQSANNNDKDPENTSMDTDSLLLNSLPTFQLILNSNANQIPLRDLDSEHVSKIVRLSGIIISTSVLSSRATYLSIMCRNCRHTTSITINNFNSITGNTVSLPRSCLSTIESESSMANESNIGDESTKKNCGPDPYIIIHESSKFIDQQFLKLQEIPELVPVGEMPRNLTMTCDRYLTNKVIPGTRVTIVGIYSIYNSKNGAGSGRSGGGNGGSGVAIRTPYIKILGIQSDVETSSIWNSVTMFTEEEEEEFLQLSRNPKLYEILTNSIAPSIFGNEDIKKAIVCLLMGGSKKILPDGMRLRGDINVLLLGDPGTAKSQLLKFVEKVSPIAVYTSGKGSSAAGLTASVQRDPMTREFYLEGGAMVLADGGVVCIDEFDKMRDEDRVAIHEAMEQQTISIAKAGITTVLNSRTSVLAAANPIYGRYDDLKSPGDNIDFQTTILSRFDMIFIVKDDHNEERDISIANHVINIHTGNANAMQNQQEENGSEISIEKMKRYITYCRLKCAPRLSPQAAEKLSSNFVTIRKQLLINELESTERSSIPITIRQLEAIIRITESLAKLELSPIAQERHVDEAIRLFQASTMDAASQDPIGGLNQASGTSLSEIRRFEQELKRRLPIGWSTSYQTLRREFVDTHRFSQLALDKALYALEKHETIQLRHQGQNIYRSGV
notes: Mcm5, S. cerevisiae; Subunit of m2; source: purified as part of CMG

What all share (test): cryo-EM structure; yeast replisome–SCF^Dia2 complexes after gradient fixation; particles translocated onto dsDNA (conformations I and II)
Details in all cases: both partners purified

One test concerns the target T1, Pol2 (Saccharomyces cerevisiae, UniProt P21951 1-2222).
T1 construct: Pol2, catalytic subunit of DNA polymerase ε, S. cerevisiae; catalytic domain ends at residue 1186, non-catalytic domain begins at residue 1321; Subunit of m15; source: purified as part of Pol-ε

The test “Mcm5” has as its target B5.
The target in another test is T2, Dia2 (Saccharomyces cerevisiae, UniProt Q08496 1-732).
T2 construct: Dia2, F-box protein, S. cerevisiae; model built for F-box (211–247), LRRs (248–716) and C-terminal tail (717–732); N-terminal TPR domain not visible; Subunit of m1 as it stands in the cryo-EM samples; also called Dia2^LRR (its leucine-rich repeat domain); source: purified as part of SCF^Dia2
T2 sequence: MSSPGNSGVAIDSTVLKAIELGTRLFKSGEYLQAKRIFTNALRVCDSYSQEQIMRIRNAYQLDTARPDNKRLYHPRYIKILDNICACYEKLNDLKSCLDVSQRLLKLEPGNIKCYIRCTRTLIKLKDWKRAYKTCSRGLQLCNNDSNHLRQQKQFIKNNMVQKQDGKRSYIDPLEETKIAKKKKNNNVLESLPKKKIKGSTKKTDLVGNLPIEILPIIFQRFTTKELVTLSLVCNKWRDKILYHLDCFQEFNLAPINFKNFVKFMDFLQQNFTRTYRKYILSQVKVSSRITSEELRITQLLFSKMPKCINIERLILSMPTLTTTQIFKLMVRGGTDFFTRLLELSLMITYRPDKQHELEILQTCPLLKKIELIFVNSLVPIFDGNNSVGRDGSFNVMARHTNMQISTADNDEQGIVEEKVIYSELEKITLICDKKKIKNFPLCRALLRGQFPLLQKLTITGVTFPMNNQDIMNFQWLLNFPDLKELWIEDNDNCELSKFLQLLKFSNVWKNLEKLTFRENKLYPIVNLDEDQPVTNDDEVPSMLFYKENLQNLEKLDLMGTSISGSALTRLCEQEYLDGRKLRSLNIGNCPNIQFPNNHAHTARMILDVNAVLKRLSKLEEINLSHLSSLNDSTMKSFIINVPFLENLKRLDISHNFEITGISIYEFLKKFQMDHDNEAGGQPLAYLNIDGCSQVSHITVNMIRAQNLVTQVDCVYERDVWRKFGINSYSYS

The target of another test is T3, Mcm3 (Saccharomyces cerevisiae, UniProt P24279 1-971).
T3 construct: Mcm3, S. cerevisiae; Subunit of m2; source: purified as part of CMG
T3 sequence (P24279 whole entry): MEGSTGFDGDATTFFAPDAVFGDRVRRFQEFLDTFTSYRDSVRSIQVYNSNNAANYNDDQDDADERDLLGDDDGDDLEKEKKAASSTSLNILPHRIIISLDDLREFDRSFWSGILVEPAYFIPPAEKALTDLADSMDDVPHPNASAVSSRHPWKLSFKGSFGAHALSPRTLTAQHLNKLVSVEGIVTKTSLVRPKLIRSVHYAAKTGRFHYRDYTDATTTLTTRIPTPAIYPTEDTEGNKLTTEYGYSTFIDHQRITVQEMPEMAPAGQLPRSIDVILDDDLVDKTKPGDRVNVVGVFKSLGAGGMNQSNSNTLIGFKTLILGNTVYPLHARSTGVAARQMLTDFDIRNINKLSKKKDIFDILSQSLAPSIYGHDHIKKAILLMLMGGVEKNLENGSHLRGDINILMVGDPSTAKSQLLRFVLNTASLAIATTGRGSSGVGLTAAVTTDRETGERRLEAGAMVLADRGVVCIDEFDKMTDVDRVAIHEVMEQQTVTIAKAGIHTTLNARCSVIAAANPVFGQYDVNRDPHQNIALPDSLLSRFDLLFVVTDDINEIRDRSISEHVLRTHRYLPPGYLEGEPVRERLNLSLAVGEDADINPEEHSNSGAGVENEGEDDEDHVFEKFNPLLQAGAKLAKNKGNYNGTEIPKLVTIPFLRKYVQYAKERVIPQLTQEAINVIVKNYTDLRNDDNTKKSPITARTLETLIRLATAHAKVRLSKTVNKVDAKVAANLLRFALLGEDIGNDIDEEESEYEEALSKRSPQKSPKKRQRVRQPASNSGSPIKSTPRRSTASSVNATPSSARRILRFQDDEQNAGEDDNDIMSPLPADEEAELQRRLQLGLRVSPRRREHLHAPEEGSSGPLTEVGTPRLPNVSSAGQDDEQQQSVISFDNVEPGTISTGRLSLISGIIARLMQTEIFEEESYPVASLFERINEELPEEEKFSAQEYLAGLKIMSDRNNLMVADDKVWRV

T1 sequence (P21951 whole entry, the tested form may be a part): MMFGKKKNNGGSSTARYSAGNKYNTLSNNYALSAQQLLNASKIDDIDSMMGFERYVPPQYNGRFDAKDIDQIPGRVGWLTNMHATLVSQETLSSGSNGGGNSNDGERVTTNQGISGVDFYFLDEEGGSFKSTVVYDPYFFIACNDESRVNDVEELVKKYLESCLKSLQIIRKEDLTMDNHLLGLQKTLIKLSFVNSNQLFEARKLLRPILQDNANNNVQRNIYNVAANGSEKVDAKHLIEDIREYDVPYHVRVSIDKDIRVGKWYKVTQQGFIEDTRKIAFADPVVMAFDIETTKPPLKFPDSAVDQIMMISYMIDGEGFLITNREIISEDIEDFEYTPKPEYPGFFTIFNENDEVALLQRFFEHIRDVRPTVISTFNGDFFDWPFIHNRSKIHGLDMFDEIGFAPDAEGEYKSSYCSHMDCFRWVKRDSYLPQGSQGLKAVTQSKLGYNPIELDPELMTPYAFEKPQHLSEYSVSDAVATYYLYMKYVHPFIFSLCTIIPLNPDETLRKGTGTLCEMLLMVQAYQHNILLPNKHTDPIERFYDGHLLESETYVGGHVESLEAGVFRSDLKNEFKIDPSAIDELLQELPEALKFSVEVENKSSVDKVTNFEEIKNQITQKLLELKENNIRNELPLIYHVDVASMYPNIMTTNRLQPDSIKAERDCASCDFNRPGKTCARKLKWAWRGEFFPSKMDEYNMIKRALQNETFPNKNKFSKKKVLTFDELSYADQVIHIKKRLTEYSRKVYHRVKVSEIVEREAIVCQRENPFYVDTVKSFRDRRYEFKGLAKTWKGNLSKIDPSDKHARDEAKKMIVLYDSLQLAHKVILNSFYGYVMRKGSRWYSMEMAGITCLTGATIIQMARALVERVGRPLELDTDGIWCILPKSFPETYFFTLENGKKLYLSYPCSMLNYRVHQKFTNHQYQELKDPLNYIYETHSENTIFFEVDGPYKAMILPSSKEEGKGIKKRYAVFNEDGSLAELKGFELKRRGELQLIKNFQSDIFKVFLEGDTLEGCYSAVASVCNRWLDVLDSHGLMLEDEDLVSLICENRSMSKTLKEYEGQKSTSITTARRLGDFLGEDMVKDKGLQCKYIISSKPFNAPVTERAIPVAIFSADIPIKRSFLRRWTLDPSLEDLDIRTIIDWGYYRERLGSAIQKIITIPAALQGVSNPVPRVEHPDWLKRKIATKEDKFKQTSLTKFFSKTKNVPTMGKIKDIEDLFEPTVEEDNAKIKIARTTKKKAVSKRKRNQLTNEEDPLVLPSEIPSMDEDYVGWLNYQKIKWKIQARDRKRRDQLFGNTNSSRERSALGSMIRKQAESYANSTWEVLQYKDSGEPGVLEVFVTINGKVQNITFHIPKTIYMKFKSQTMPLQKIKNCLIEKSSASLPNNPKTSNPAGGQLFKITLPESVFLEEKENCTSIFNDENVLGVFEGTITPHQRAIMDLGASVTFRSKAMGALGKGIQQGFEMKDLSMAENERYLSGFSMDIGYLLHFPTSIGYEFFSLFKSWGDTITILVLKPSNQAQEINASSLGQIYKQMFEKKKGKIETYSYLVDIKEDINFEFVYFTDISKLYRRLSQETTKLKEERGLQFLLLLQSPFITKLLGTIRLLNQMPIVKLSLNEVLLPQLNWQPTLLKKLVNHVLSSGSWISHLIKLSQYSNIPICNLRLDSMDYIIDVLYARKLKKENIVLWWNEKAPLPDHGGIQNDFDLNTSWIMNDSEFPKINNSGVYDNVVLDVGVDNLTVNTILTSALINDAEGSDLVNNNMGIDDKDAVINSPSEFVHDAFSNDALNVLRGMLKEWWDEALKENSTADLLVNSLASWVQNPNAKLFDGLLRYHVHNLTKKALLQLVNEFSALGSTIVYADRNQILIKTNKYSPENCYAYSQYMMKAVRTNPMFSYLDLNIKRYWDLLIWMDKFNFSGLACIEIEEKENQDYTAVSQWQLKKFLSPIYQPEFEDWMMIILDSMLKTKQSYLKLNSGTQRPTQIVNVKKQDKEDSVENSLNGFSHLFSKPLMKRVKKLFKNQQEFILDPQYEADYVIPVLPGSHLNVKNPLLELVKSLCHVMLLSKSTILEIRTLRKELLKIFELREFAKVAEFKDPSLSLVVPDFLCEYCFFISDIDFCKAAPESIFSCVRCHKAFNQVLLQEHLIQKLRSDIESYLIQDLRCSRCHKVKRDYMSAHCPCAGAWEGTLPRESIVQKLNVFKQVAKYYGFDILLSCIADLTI

B1: Mcm2 (natural protein, Saccharomyces cerevisiae)
chain: MSDNRRRRREEDDSDSENELPPSSPQQHFRGGMNPVSSPIGSPDMINPEGDDNEVDDVPDIDEVEEQMNEVDLMDDNMYEDYAADHNRDRYDPDQVDDREQQELSLSERRRIDAQLNERDRLLRNVAYIDDEDEEQEGAAQLDEMGLPVQRRRRRRQYEDLENSDDDLLSDMDIDPLREELTLESLSNVKANSYSEWITQPNVSRTIARELKSFLLEYTDETGRSVYGARIRTLGEMNSESLEVNYRHLAESKAILALFLAKCPEEMLKIFDLVAMEATELHYPDYARIHSEIHVRISDFPTIYSLRELRESNLSSLVRVTGVVTRRTGVFPQLKYVKFNCLKCGSILGPFFQDSNEEIRISFCTNCKSKGPFRVNGEKTVYRNYQRVTLQEAPGTVPPGRLPRHREVILLADLVDVSKPGEEVEVTGIYKNNYDGNLNAKNGFPVFATIIEANSIKRREGNTANEGEEGLDVFSWTEEEEREFRKISRDRGIIDKIISSMAPSIYGHRDIKTAVACSLFGGVPKNVNGKHSIRGDINVLLLGDPGTAKSQILKYVEKTAHRAVFATGQGASAVGLTASVRKDPITKEWTLEGGALVLADKGVCLIDEFDKMNDQDRTSIHEAMEQQSISISKAGIVTTLQARCSIIAAANPNGGRYNSTLPLAQNVSLTEPILSRFDILCVVRDLVDEEADERLATFVVDSHVRSHPENDEDREGEELKNNGESAIEQGEDEINEQLNARQRRLQRQRKKEEEISPIPQELLMKYIHYARTKIYPKLHQMDMDKVSRVYADLRRESISTGSFPITVRHLESILRIAESFAKMRLSEFVSSYDLDRAIKVVVDSFVDAQKVSVRRQLRRSFAIYTLGH
notes: Mcm2, S. cerevisiae; Subunit of m2; source: purified as part of CMG
For B1, in the test with Pol2, the binding result is “binds”.

B2: Dpb2 (natural protein, Saccharomyces cerevisiae)
chain: MFGSGNVLPVKIQPPLLRPLAYRVLSRKYGLSIKSDGLSALAEFVGTNIGANWRQGPATIKFLEQFAAVWKQQERGLFIDQSGVKEVIQEMKEREKVEWSHEHPIQHEENILGRTDDDENNSDDEMPIAADSSLQNVSLSSPMRQPTERDEYKQPFKPESSKALDWRDYFKVINASQQQRFSYNPHKMQFIFVPNKKQNGLGGIAGFLPDIEDKVQMFLTRYYLTNDRVMRNENFQNSDMFNPLSSMVSLQNELSNTNRQQQSSSMSITPIKNLLGRDAQNFLLLGLLNKNFKGNWSLEDPSGSVEIDISQTIPTQGHYYVPGCMVLVEGIYYSVGNKFHVTSMTLPPGERREITLETIGNLDLLGIHGISNNNFIARLDKDLKIRLHLLEKELTDHKFVILGANLFLDDLKIMTALSKILQKLNDDPPTLLIWQGSFTSVPVFASMSSRNISSSTQFKNNFDALATLLSRFDNLTENTTMIFIPGPNDLWGSMVSLGASGTLPQDPIPSAFTKKINKVCKNVVWSSNPTRIAYLSQEIVIFRDDLSGRFKRHRLEFPFNESEDVYTENDNMMSKDTDIVPIDELVKEPDQLPQKVQETRKLVKTILDQGHLSPFLDSLRPISWDLDHTLTLCPIPSTMVLCDTTSAQFDLTYNGCKVINPGSFIHNRRARYMEYVPSSKKTIQEEIYI
notes: Dpb2, subunit of DNA polymerase ε, S. cerevisiae; Subunit of m15; source: purified as part of Pol-ε
Regarding B2, in the test with Mcm5, the binding result is reported as “binds”.

B3: Csm3 (natural protein, Saccharomyces cerevisiae)
chain: MDQDFDSLLLGFNDSDSVQKDPTVPNGLDGSVVDPTIADPTAITARKRRPQVKLTAEKLLSDKGLPYVLKNAHKRIRISSKKNSYDNLSNIIQFYQLWAHELFPKAKFKDFMKICQTVGKTDPVLREYRVSLFRDEMGMSFDVGTRETGQDLERQSPMVEEHVTSAEERPIVADSFAQDKRNVNNVDYDNDEDDDIYHLSYRNRRGRVLDERGNNETVLNNVVPPKEDLDALLKTFRVQGPVGLEENEKKLLLGWLDAHRKMEKGSMTEEDVQLIQSLEEWEMNDIEGQHTHYDLLPGGDEFGVDQDELDAMKEMGF
notes: Csm3, S. cerevisiae; Subunit of m12; source: purified as part of Tof1–Csm3
Take B3: the binding result with Dia2 is recorded as “binds”.

B4: Mcm7 (natural protein, Saccharomyces cerevisiae)
chain: MSAALPSIQLPVDYNNLFNEITDFLVTFKQDTLSSDATRNENEDENLDAENIEQHLLEKGPKYMAMLQKVANRELNSVIIDLDDILQYQNEKFLQGTQADDLVSAIQQNANHFTELFCRAIDNNMPLPTKEIDYKDDVLDVILNQRRLRNERMLSDRTNEIRSENLMDTTMDPPSSMNDALREVVEDETELFPPNLTRRYFLYFKPLSQNCARRYRKKAISSKPLSVRQIKGDFLGQLITVRGIITRVSDVKPAVEVIAYTCDQCGYEVFQEVNSRTFTPLSECTSEECSQNQTKGQLFMSTRASKFSAFQECKIQELSQQVPVGHIPRSLNIHVNGTLVRSLSPGDIVDVTGIFLPAPYTGFKALKAGLLTETYLEAQFVRQHKKKFASFSLTSDVEERVMELITSGDVYNRLAKSIAPEIYGNLDVKKALLLLLVGGVDKRVGDGMKIRGDINVCLMGDPGVAKSQLLKAICKISPRGVYTTGKGSSGVGLTAAVMKDPVTDEMILEGGALVLADNGICCIDEFDKMDESDRTAIHEVMEQQTISISKAGINTTLNARTSILAAANPLYGRYNPRLSPLDNINLPAALLSRFDILFLMLDIPSRDDDEKLAEHVTYVHMHNKQPDLDFTPVEPSKMREYIAYAKTKRPVMSEAVNDYVVQAYIRLRQDSKREMDSKFSFGQATPRTLLGIIRLSQALAKLRLADMVDIDDVEEALRLVRVSKESLYQETNKSKEDESPTTKIFTIIKKMLQETGKNTLSYENIVKTVRLRGFTMLQLSNCIQEYSYLNVWHLINEGNTLKFVDDGTMDTDQEDSLVSTPKLAPQTTASANVSAQDSDIDLQDA
notes: Mcm7, S. cerevisiae; Subunit of m2; source: purified as part of CMG
As for B4, the binding result in the test with Mcm3 was “binds”. As for B5, the binding result in the test with Pol2 is “binds”.
